A short description of this series: label from the status in PepcDB records.
In the case of “MRKKGNKLIEFVSKIMALVMAVTLLSSLPVQNVLANDSKETKGEEYEIYPIPQSIKYDNGTVTLGTDANVVFEEGIDEATKNRLLEVLSIKGINYEESNEIKEDKTNFLIGINNSEGVVDKYFTDNNLANDSHFENHDAHVVSVKGNVIAVLGKNTDSAFYGITSLKAIFNQLEGNELKELLIEDYSDGQWRGFIEGYYGIPWSNENRKDLMKFGGDFKMNSYIFAPKDDQYHSLKWREPYPAEKLAEIKEMVDVGIATKNKFIWTIHPFLKDGMNFGSEESYKADLEKIIAKFEQLYSVGVRQFGVLADDAEGEANNQVKLMEDLEKWRLQKGDVYEFIFVPKVYTKESAGGDVNNEYLKTIGTMPETIDIMWTGDVILGYVTQETFEFFEEAVGRQAFMWLNWPVNDINNKRLLMGKGEMLDPTVTNFKGIVTNPMQEAQASKVALFAIADYGWNRADFDMDKSWKDSFKYIEPDASEELYTFAKHMSDPAPNWHGLSLEESEELRPVIEEFTRKLWEKESVLDYSKVILDEYQEILDATNNFATKSKNELLKSEIKGWVDSLRDLAESTIAYINSAVAFEKGNYEEAMKYYVLGEDEYTASRSHRTPVINGQSRPEPGTRHLIPFIKDLSKIIGDNIDQVINPDTTKLTLRPYTNMSPLYWGHVQNIADGDNTRYSCMWIRNSAKEGDYVAVELNEVTKVNSITFEQGQDEGDAFNYGKFQYSMDGENWIDVDGVDYGPKMHKIVVEGLDITAKYLRFIPTKEILNNWIAVREFSVNKKDENNMKVNAYTNVEALAKNEVSISEEKATLSDLNDVTLSKGEYVGIKLNKLREVTNIVSDFTNNDNLTLETSINGVEWVEAKTLSETINARYVRIINNTEKDVTFNLNKLEAEYSNNDVNFDIRPTAEAKFEPKNLIDGKLNTAFKPLESAPKSGQLTYRISDKTDIKKFTIVQNPNTISNAIVSVRNENGWKEVGSLGKSFNEFNTEDFENVFEIKVEWDGFAPTIYEIGLSTIKEEVQVDKSKLEEAIKEVEKLKEEDYTKDSWSNLIEKLNLAKEVLSKEDATQDEVDNAIKALNEAISGLVKKDETEGPVDPEKPVDPENPDNTEKPENPEGTDKPQTPDKPEGNLPNTGGASSSIFLQLGVVMMASGAFVLKRKKR”, the protein production result is recorded as “failed”.
The entry for “MRKLAAFLGLVGLLSLGLAQSAQEILDRVEKNLSTPWQATVQGRIQGPGGEEELLARVYALPQARLFRVEFLKPGSLEGNFTVITEKEVWNYLYLTNQLVISPREKAKIQGLGFAPQGLGDLKALSEQVDLRLEGEVRLPEGMAWKLVGRSKENQGFAAMELYILKADPRPLRFVFLDEKGKVLADLKVVEFKRTNLTEAQLKRYPKDAQVVRR” is “not failed”; for “MRKNKLSFKEKAGAEQEECLCFCEGEASREAMFQAPIELPEGFVVDPAEAVANVTWNADSLSCVSDRCLIQTGPEPDEVGVQFAVRLQGTVTLLVSVSPVRNQYGQGDGAVSVIHNAEIDQVVYYSDESDDCPDISDITIENLVVVPPFYGSPLSVTGTIVLVPEPEPVYAFTANPNDQSVSVIDTNTDTVVTTIALPYNPAGIEITPDKSAVFVLHPNNNVISVIDYDTLTVTATILLDQPPRLIRFIPNHEFAYVFTGTAVYVIGIDTLTVDRSIPVEGYDVAIDPNGLFAYVLNFGIVQKVDLTTGEVTGTIERELIVSTIETNWPERYAYVLEQEFFFNYLTVIDLNTFTISSTQELEYEGEYRMFTSGAEVYLYDGFTGNLYSVSPNGAGVIGNVPQSATDYAFTPNGDFLYATRFIEQSIIVYNTDDYSEETVISLGVSPGAITILEHHHHHH” it is “not failed”.
The entry for “MRKRYVMTEQVQSGPRLDWLLDGLVDRIPEIRCAIVLSGDGLLIGKSKNLRRDDAEHLSAVGSGMHSLARGAARHFHGGEVQQTVIQMDRAFLFVTAAGRGARLAAIASEQVDVGMMAFEMGTLVKQVGQYLSAAPRVETPSAGHIQDA” is “failed”; for “MRKSLKMTIGIGLILSCFGLILVGIGLSSGGIDKLQVKDDQAPKKEVQFDNIQSLDLDLSVRNIKIESSQDQHFKLTYYKKLDEEISHKVQHQKLNLKQKEKFRIHFFVLSDFFNWFHQDDTNTVTLAIPKNVQLKDVSIKNNVGDITIKNQQASKITVHQNTGNLNIYNSQIAKGKVSSDVGNIAIQNSSLSNIDVVDHTGDISAENLTVLNLVRMTNNIGNTNVSLSPQSAQATIVSTKTDVGHTDISHQLLQGYSGKNRLAVKGDTGNIQIK” it is “failed”.
With “MRKVSISILFMLVSLTWGTTWLAMRIAVETIPPVFATGMRFMFAAPFLIIIAWLRKKTLLFPPGQRLFQFVICIFYFSIPFSLMIYGETYVNSGLAAIIFANMPVAVLIASVLFLNEKAKLMQIAGLTIAITALTGILLEEANTSTESHWQGITALISAVLIHAIIYTQCKKRSCTVSVITFNALPCLLAGLILSATGWFFERPQVSTFSVHSILATLYLGAFAGVFGILCYFALQQKANAFQASLVFLIFPLIAVSLEDYIYGYAISTHSMLLIIPLAIGIFLTLVARNIPVTSRCRDNSSQE” the entry was “failed”.
As for “MRKYLLIGVSAFVLGAGTMAYISPIAQANNAPKAQTYKLLELFGDVLGTVEDQYVTEVDDKKLIEAALDGMLTSLDPHSGYLAPDAFEDMQDTTRGEYGGLGLEVTSEEGVVKVISPMDGTPASRAGIQAGDYITAVNGQSVLGLTVNEAVKQMRGTAGEAVTLTIAREKTDPFDVKLVREVIKPKAAIARMEGDYGYVRLPGFNEKATDALASSVSELKSKNPKMKGLILDLRNNPGGLLDQAVGVADVFLDGGEVVSQRGRDPRNIQRYNARGGDMLNGLPMVVLINQGSASAAEIVAGALQDRKRAEVVGLTSFGKGSVQTVIPLRGGADGALKLTTARYFTPSGRSIQKTGIAPDLEVAQTRDQAQDIANRVWFSEASFKNALNADEGKSRVGAHTPAEAPPTGFDDKKGDFQLQRAIAVLQAGGVAKTPKLPKPAAKVAEVTAKAAAAAGGKTPVTEVK”, the protein production entry is “failed”.
With “MRLAFWLYEGTALHGVSRVTNSMKGVHTVYHAPQGDDYITATYTMLERTPEFPKLSISVVRGQDLARGTSRLPGTVEQVDKHYKPELIVVAPSCSTALLQEDLGQMARASGVDQSKIMVYAVNPFRVAENEAAEGLFTELVRRFAAEQPKTEKPSVNLLGFTSLGFHLRSNLTSLRRMLKTLGIEVNVVAPWGAGIDDLKKLPAAWVNIAPFREIGCQAAGYLKEKFGMPSITEAPLGVNATLRWLRAIIAEVNKIGAEKGMAPMAMPELRDFSLDGQSAPSSVPWFARTADMESFSNKRAFVFGDATQVVGVTKFLKDELGMKIIGAGTYLPKQADWVREQLEGYLPGELMVTDKFQEVSAFIEEEMPELVCGTQMERHSCRKLDVPCMVISAPTHIENHLLGYYPFFGFDGADVMADRVYTSAKLGLEKHLIDFFGDAGLEYEAEEPEAFTEPTMSGNGTVASVSSAEAPSEAAVVTATATGELSWTAEAEKMLGKVPFFVRKKVRKNTDNYAREIGEPVVTADVFRKAKEHLGGLEHHHHHH” the entry was “failed”.
The entry for “MRLAGVGKSCLFAGRCAGIRPRRRLRWVLHFTATVPLNSMSSRRAFLRQCGLALAAAPALSSLPPWLSSADGFTSLRGGIGTFTQRGGTIGWLATDDGIAVVDTQSPQSAPDCWNGLRERSDSPLAMVINTHHHGDHVGGNGVFARHTDRLVAHANVPELMRAGAEDGAADEKTYPTETFQDTWSEPLGDETITLRYRGPAHTGGDAIVVFENANIVHVGDLVFNRAYPFIDVGGGADSQGWIDSLETIHGALDDDTIVIHGHGNPDFGVTGGREDLLVMRDFLSALNEYVTQQRQAGASLDEMKQTKVLDGFEAFNFDWALSLADCIEAVYREQTAG” is “failed”; for “MRLDRNPWHWRIWVCIAVLALWPRAASADTITPERIADALSKLDALAQGAVADGGVPGLAIAVVHDDEVIFLRGFGHREAGKPEAVDADTVFQIASLSKPVSATVVAALVSDGIVSWDSKVADLDPAFRLADPYPTSQLTVRDLFSHRSGLPGTAGDDLEDIGYDRAEILHRLRFVPPSSSFRAGYSYSNFGLTEGAVAAAMPTGKSWEEVAQEKLYRPLGMASTSSRHSDFVKHADRAALHIKVDGAWAAKIERDPDAQAPAGGVSSTARDLSQWVRLILGNGVYAGKTLIAADALDQTHVPLMTRGKNPVSGGESFYGLGWNVEFGRHGLSWGHAGAFSVGARTLVTIFPQDKLGIVIIANAFPTGVPEGLSDSFADLVFDGSVQKDWVKAWDGIYAGMFGPVVEAAKATYAAPPSPARPARPASAYAGRYANDFFGDAVVASAGDGLVLKVGPHGARSYSLAHFDGDLFLTYPDAETPDRPTGVSFVVGPDGKASAMTIGFLDDNHLGTLRRVGD” it is “failed”; for “MRLGTFHKKKRFYINKIKINFLSFLFRNKINNQITDPAQVKSCLIIHDNNKLGDLIVLSSIYRELYSKGVKITLLTNRKGGEFLSNNKNIFEFCIKESTGFLEMLTLCKHLRDLQFDIVLDPFETMPSFKHSLILSSLKDSYILGFDHWYKRYYSFYHPHDECLKEHMSTRAIEILKHIYGEGKFSTNYDLHLPVDVEDKIKEFIGDTRIVIINPLGAKKICRLTFEQIKVIYQEVKTHFENYRIIFTGLPQDLLTIPILEIETLPFDEFIYTVALTKYSDFVISVDTALVHIAAAYHKPTLAFYPNSRTPEYPSHLIWSPNHHKSIQIVSPTYTVKDIDTETLTNSVKRLSCIDKK” it is “failed”.
Consider “MRLINTTSSHPELVRNQLQNTDAKLVEVYSAGNTDVVFTKAPKHYELLISNKYRAIKDEELEAIREFFLKRKIDQSIIIQEQMKSLHTAKLIEISYPTTA”, for which the protein production entry is reported as “failed”.
The entry for “MRLITNLLIIAILFSVPHVSIARIPEVVLSKKSAVVSIYVEDKQKIVAGGSGFIIDQNGIIVTNAHVIEPWNKSTTGILYVKKSDGTFLEPTEVIAADAVKDVALVRVKEQNLPFIKLTSNITPTQGDDVVVIGNPLGLETTVTDGIISAIRGEDGFLQISAPISQGSSGSPVLNSKGEAIGVATSIMAGGQNLNFAIPASYVTNLPTQEKAPPVKGLKKRAESPSGFETVTPEDIERDVVQIPEGAVHKGKVLFATDSGGYTYIRIEENGAPLWVAVTQTTISIGDIIEFPDSPPMTGFNSKSMNMTFDKITFAAGIRIVQRGNVEFKSPEEKHLYYAEQYSSMNNTPAAIEEISKAIELNPKKAEYYGKRANYYLQRRMYADSKSDEYQQIVASNRESCRNAVDDLNKAIAINPGNDVFYATQARIFTDSLFCDYANADKAIKLYETAIQLNPKKADYYVEKGWQHKIKNDFSKVLDCAKKALSISPNNEDAHYLYGSYYEENNKYDKALEYYTKGLSVSDNVTFGYFYIDGVMEKTKKYDDAVRIYTDLIKQHPKRLIFYNGRAEYYAKLKNYKKAIADYTTCIKLNPNSEYNYNLRANCYYEDGKKSEALTDYRTACDMKHAESCEMIPIVFADIKRGANWVPVAASSDVNYYYDKKGYTKNKNGVAVAWIRGEITDKEEYIKDIDISEYEKEKYKNVSHVMSRFEVDCPNQKLRVPISLIYAENGNVIRSYEDEKTKYSNIIPNSIGASIHENLCKGAPAKKIGKKK” is “failed”.
With “MRLLHTSDWHLGRSFHGVGMLDAQRNFVDQLVSLVQSKSVDVVLIAGDVYDRALPGLDVVKLLDDALVRITQAGAGVVLTSGNHDSAIRLGFASRLLERGGVHLRTKVEDIDVPVLFPLGGDENAKNSTLNGQVVVYGIPYLEPRLVAERLGAENANHFDVTLAAVERIRRDVEARRASGPVYPVVLAHTFASGGITSESERDLSIGGLGAVPLDLFDDFAYTALGHLHGRQELAPHVRYSGSPLAYSFSEAKHHKGAWLVDLDAGGVIAVEEVLWEAPKALATLRGTLDDLLGAEEHAWAENAYCQITLTDTQRPAQAMERVRTRFPDTLVLSFDPQGAAARTSTSYSNRLAEAEDDLGVCCGFLDHVRDRDASDAEEAALREALEAVRLQEAEL” the entry was “failed”.

Values taken from a protein production outcome set (Wang et al. 2014).
